Experimental data from the RNAGym collection of RNA variant scans (doi:10.7554/elife.80360).

B1: Twister Ribozyme (parent)
chain: AACACUGCCAAUGCCGGUCCCAAGCCCGGAUAAAAGUGGAGGGGGCGG

Variants of: B1
Experiment: self-cleavage, relative activity (ratio to wild type); higher = more cleavage; co-transcriptional

In order of falling self-cleavage:
1. AACACUGCCAAUGCCGGUUCCAAGCCCGGAUAAACGUGGAGGGGGCGG  1.05
2. AACACUGCCAAUGCCGGUUCCAAGCCCGGAUCAAAGUGGAGGGGGCGG  1.05
3. AACACUGCCAAUGCCGGUUCCAAGCCCGGAUAAAAGUGGAGGGGGCGC  1.04
4. AACACUGCCAAUGCCGGUUCCAAGCCCGGAUAAAAGUGGAGGGGGGGG  0.929
5. AACACUGCCAAUGCCGGUUCCAAGCCCGGAUAAAAGUGGAGGGGGCGU  0.91
6. AACACUGCCAAUGCCGGUUCCAAGCCCGGAUAAAAGUGGAGGGGGUGG  0.907
7. AACACUGCCAAUGCCGGUUCCAAGCCCGGAUAUAAGUGGAGGGGGCGG  0.86
8. AACACUGCCAAUGCCGGUUCCAAGCCCGGAUGAAAGUGGAGGGGGCGG  0.855
9. AACACUGCCAAUGCCGGUUCCAAGCCCGGAUAAAAGUGGAGGGGGAGG  0.853
10. AACACUGCCAAUGCCGGUUCCAAGCCCUGAUAAAAGUGGAGGGGGCGG  0.822
11. AACACUGCCAAUGCCGGUUCCAAGCCUGGAUAAAAGUGGAGGGGGCGG  0.802
12. AACACUGCCAAUGCCGGUUCCAAGCCCGGAUACAAGUGGAGGGGGCGG  0.795
13. AACACUGCCAAUGCCGGUCACAAGCCCGGAUAAAAGUGGAGCGGGCGG  0.78
14. AACACUGCCAAUGCCGGUUCCAAGCCCAGAUAAAAGUGGAGGGGGCGG  0.758
15. AACACUGCCAAUGCCGGUUCCAAGCCCGGAUAAAAGGGGAGGGGGCGG  0.621
16. AACACUGCCAAUGCCGGUUCCAAGCCCGGAUAAAAGAGGAGGGGGCGG  0.406
17. AACACUGCCAAUGCCGGUUUCAAGCCCGGAUAAAAGUGGAGGGGGCGG  0.327
18. AACACUGCCAAUGCCGGUUCCAAGCCCGGAUAAAAGUGGAGGCGGCGG  0.286
19. AACACUGCCAAUGCCGGUUCCAAGCCCGGAUAAAAGUGGAGCGGGCGG  0.221
20. AACACUGCCAAUGCCGGUCGCAAGCCCGGAUAAAUGUGGAGGGGGCGG  0.182
21. AACACUGCCAAUGCCGGUUCCAAGCCCGGAUAAAAGUGGAGAGGGCGG  0.17
22. AACACUGCCAAUGCCGGUUCCAAGCCCGGAUAAAAAUGGAGGGGGCGG  0.167
23. AACACUGCCAAUGCCGGUCACAAGCCCGGAUAAAAGUGGAGGGGCCGG  0.161
24. AACACUGCCAAUGCCGGUUCCAAGCCCGGAUAAAAGUGGCGGGGGCGG  0.152
25. AACACUGCCAAUGCCGGUCACAAGCCCGGAUAAAAGUGGAGGGGGCGU  0.142
26. AACACUGCCAAUGCCGGUUCCAAGCCCGGAUAAAAGUGGUGGGGGCGG  0.133
27. AACACUGCCAAUGCCGGUCACAAGCCCGGAUAAAAGUGGCGGGGGCGG  0.129
28. AACACUGCCAAUGCCGGUUCCAAGCCCGGAUAAAAUUGGAGGGGGCGG  0.127
29. AACACUGCCAAUGCCGGUUCCAACCCCGGAUAAAAGUGGAGGGGGCGG  0.126
30. AACACUGCCAAUGCCGGUCGCAUGCCCGGAUAAAAGUGGAGGGGGCGG  0.121
31. AACACUGCCAAUGCCGGUCGCACGCCCGGAUAAAAGUGGAGGGGGCGG  0.118
32. AACACUGCCAAUGCCGGUCACAAGCCCGGAUAAAAGUGGAGGAGGCGG  0.118
33. AACACUGCCAAUGCCGGUUCCAAGACCGGAUAAAAGUGGAGGGGGCGG  0.113
34. AACACUGCCAAUGCCGGUCGCAAGCCCGGAUAAAAGUGGCGGGGGCGG  0.109
35. AACACUGCCAAUGCCGGUUACAAGCCCGGAUAAAAGUGGAGGGGGCGG  0.107
36. AACACUGCCAAUGCCGGUCACAAGCCCGGAUAAAAGUGGUGGGGGCGG  0.106
37. AACACUGCCAAUGCCGGUCACAAGCGCGGAUAAAAGUGGAGGGGGCGG  0.105
38. AACACUGCCAAUGCCGGUCACAAGCCCGGAUAAAAGUGGAGGUGGCGG  0.105
39. AACACUGCCAAUGCCGGUCACAAGCCCGGAUAAAAGUGGAGGGGGCGA  0.104
40. AACACUGCCAAUGCCGGUCGCAAGCCCGGAUAAAAGUGGUGGGGGCGG  0.0992
41. AACACUGCCAAUGCCGGUCACAAGCCCGGAUAAAAGUAGAGGGGGCGG  0.0955
42. AACACUGCCAAUGCCGGUCGCAAGCCCGGAUAAAGGUGGAGGGGGCGG  0.094
43. AACACUGCCAAUGCCGGUCGCAAGCCCGGAUAAAAGUGGAUGGGGCGG  0.0931
44. AACACUGCCAAUGCCGGUCGCAAGCGCGGAUAAAAGUGGAGGGGGCGG  0.093
45. AACACUGCCAAUGCCGGUCGCAAGCCCGGAUAAGAGUGGAGGGGGCGG  0.0924
46. AACACUGCCAAUGCCGGUCACAAGCCCGGAUAAAAUUGGAGGGGGCGG  0.0906
47. AACACUGCCAAUGCCGGUCACAAGCCCGGAUAAAAGUGGAGGCGGCGG  0.0847
48. AACACUGCCAAUGCCGGUCACAAGCCCGGAUAAAAGUGGGGGGGGCGG  0.0838
49. AACACUGCCAAUGCCGGUCGCAAGGCCGGAUAAAAGUGGAGGGGGCGG  0.0818
50. AACACUGCCAAUGCCGGUUCUAAGCCCGGAUAAAAGUGGAGGGGGCGG  0.0767
51. AACACUGCCAAUGCCGGUCGCAAGCCCGGAUAAUAGUGGAGGGGGCGG  0.074
52. AACACUGCCAAUGCCGGUUGCAAGCCCGGAUAAAAGUGGAGGGGGCGG  0.0718
53. AACACUGCCAAUGCCGGUCGCAAGCACGGAUAAAAGUGGAGGGGGCGG  0.0588
54. AACACUGCCAAUGCCGGUCACAAGCCCGGAUAAAACUGGAGGGGGCGG  0.0494
